± gives the uncertainty stated by the source.
Assay: self-splicing fitness, log relative to wild type (ln ratio); higher = more splicing; Tetrahymena group I intron in knt gene, E. coli kanamycin selection, DiMSum; sequences stand for … in CUCUCU…GGAGGGAAAAGUUAUCAGGCAUGCACCUGGUAGCUAGUCUUUAAACCAAUAGAUUGCAUCGGUUUAAAAGGCAAGACCGUCAAAUUGCGGGAAAGGGGUCAACAGCCGUUCAGUACCAAGUCUCAGGGGAAACUUUGAGAUGGCCUUGCAAAGGGUAUGGUAAUAAGCUGACGGACAUGGUCCUAACCACGCAGCCAAGUCCUAAGUCAACAGAUCUUCUGUUGAUAUGGAUGCAGUUCACAGACUAAAUGUCGGUCGGGGAAGAUGUAUUCUUCUCAUAAGAUAUAGUCGGACCUCUCCUUAAUGGGAGCUAGCGGAUGAAGUGAUGCAACACUGGAGCCGCUGGGAACUAAUUUGUAUGCGAAAGUAUAUUGAUUAGUUUUGGAGUACUCGUGGUCG
Outline: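 Six replicate transformations of E. coli BL21(DE3) with a pET-22b(+) library were grown overnight at 37°C or 30°C. The library randomised all eight P1ex-region intron nucleotides, the intron lying in the knt kanamycin-resistance gene, and plates were LB agar with or without 25 μg/mL kanamycin plus 100 μg/mL carbenicillin, 50 μM IPTG and 0.2% rhamnose. Pooled colonies were amplicon-sequenced on an Illumina HiSeq 2500, and fitness is the DiMSum error-weighted combination of wild-type-normalised replicate fold changes, kanamycin versus none.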

Sequence | self-splicing fitness (ln) (30 °C) | self-splicing fitness (ln) (37 °C)
UAUCAGCAAUAUUACGGGCU | -2.72 ± 0.21 | -2.23 ± 0.3
GGUUAGCAAUAUUACGGAGC | -2.27 ± 0.24 | -1.43 ± 0.29
AGUCAGCAAUAUUACGAGUU | -1.9 ± 0.092 | -0.799 ± 0.077
UCCGAGCAAUAUUACGCGGU | -3.33 ± 0.26 | -1.58 ± 0.17
AUUUAGCAAUAUUACGACAC | -0.837 ± 0.12 | -0.373 ± 0.14
GUGAAGCAAUAUUACGCUGU | -2.74 ± 0.13 | -1.29 ± 0.12
AGCCAGCAAUAUUACGAGUU | -1.84 ± 0.086 | -0.293 ± 0.081
AAAUAGCAAUAUUACGUUAU | -3.39 ± 0.18 | -2 ± 0.15
AUGUAGCAAUAUUACGGAAG | – | -2.01 ± 0.31
GACAAGCAAUAUUACGGGUC | -3.73 ± 0.19 | -3.15 ± 0.28
ACGGAGCAAUAUUACGAUCC | – | -1.94 ± 0.47
AACAAGCAAUAUUACGAACU | -0.328 ± 0.052 | 0.146 ± 0.084
GGCGAGCAAUAUUACGAUUC | -0.495 ± 0.1 | 0.463 ± 0.14
AAAUAGCAAUAUUACGAUCU | -0.0304 ± 0.11 | 0.867 ± 0.13
ACGCAGCAAUAUUACGUUUU | -3.43 ± 0.12 | -2.11 ± 0.11
GGUUAGCAAUAUUACGGACU | – | -1.31 ± 0.23
AACGAGCAAUAUUACGGAAG | -2.67 ± 0.16 | -2.45 ± 0.28
AAGCAGCAAUAUUACGAAAU | -2.65 ± 0.11 | -1.33 ± 0.12
UUUAAGCAAUAUUACGUGCA | -1.06 ± 0.12 | -0.0552 ± 0.15
CUCCAGCAAUAUUACGCAAU | -4.47 ± 0.41 | -2.43 ± 0.2
UUGGAGCAAUAUUACGCUAU | -2.08 ± 0.44 | -1.93 ± 0.28
UAACAGCAAUAUUACGCCAU | -3.93 ± 0.22 | -2.11 ± 0.17
UCAUAGCAAUAUUACGCUCG | -0.651 ± 0.15 | -0.277 ± 0.17
GUGCAGCAAUAUUACGCUAA | -0.546 ± 0.17 | 0.418 ± 0.15
UAAGAGCAAUAUUACGUCGA | -3.95 ± 0.3 | -1.74 ± 0.17

Sequence | self-splicing fitness (ln) (30 °C) | self-splicing fitness (ln) (37 °C)
ACCUAGCAAUAUUACGCAUC | -1.83 ± 0.072 | -0.436 ± 0.078
UAAAAGCAAUAUUACGGCCC | -2.11 ± 0.34 | -1.28 ± 0.33
GUGGAGCAAUAUUACGCGUU | -2.56 ± 0.16 | -1.94 ± 0.23
GGCUAGCAAUAUUACGACAG | -2.88 ± 0.35 | -1.85 ± 0.34
CGAUAGCAAUAUUACGAGAA | -2.67 ± 0.36 | -2.73 ± 0.47
UAACAGCAAUAUUACGCGAG | -0.783 ± 0.052 | -0.508 ± 0.066
ACAAAGCAAUAUUACGAGUG | -1.37 ± 0.068 | -0.772 ± 0.081
UCACAGCAAUAUUACGCUAA | -2.39 ± 0.12 | -2.27 ± 0.18
ACUCAGCAAUAUUACGGAAC | -1.64 ± 0.12 | -1.76 ± 0.19
AAGGAGCAAUAUUACGUUUA | -2.95 ± 0.24 | -1.66 ± 0.16
UGGGAGCAAUAUUACGUUCU | -2.95 ± 0.29 | -2.35 ± 0.32
CAACAGCAAUAUUACGUUUG | -3.3 ± 0.077 | -2.11 ± 0.094
GCGGAGCAAUAUUACGUGAU | -2.01 ± 0.47 | -1.42 ± 0.3
UGCCAGCAAUAUUACGAUGG | -3.49 ± 0.2 | -2.16 ± 0.18
UGCGAGCAAUAUUACGAUAC | -2.68 ± 0.28 | -1.45 ± 0.32
AGUCAGCAAUAUUACGGACG | -0.173 ± 0.07 | 0.0506 ± 0.1
GGGCAGCAAUAUUACGUCCA | -1.17 ± 0.23 | -1.01 ± 0.28
ACUCAGCAAUAUUACGGAGG | -2.28 ± 0.13 | -1.35 ± 0.17
UUUCAGCAAUAUUACGGCGU | -2.37 ± 0.14 | -0.454 ± 0.14
GUAUAGCAAUAUUACGGGUG | -3.76 ± 0.16 | -2.86 ± 0.22
UCAUAGCAAUAUUACGGGCU | – | -2.19 ± 0.32
UCCAAGCAAUAUUACGCUGU | -2.3 ± 0.14 | -2.25 ± 0.17
UGCAAGCAAUAUUACGCCGU | -2.38 ± 0.36 | -1.81 ± 0.25
UAGAAGCAAUAUUACGGUAG | -1.88 ± 0.13 | -0.213 ± 0.13
